From patent US20200199647A1 (published 2020) come the findings set out here.

A word on the Kd: it is the free concentration of one partner at which half of the binding sites on the other are occupied at equilibrium, for simple one-to-one binding.

Experiment [1] concerns the target T1, PP1c (human PP1cα amino acids 7-330, N-terminal Thio6/His6 tag) (human, UniProt P62136 7-330). As to the kind of experiment: thermophoresis.
Experiment [2] deals with T1, PP1c (human PP1cα amino acids 7-330, …). As to the kind of experiment: thermophoresis. This is another data set of the same source.

Where two headings read alike, the source gives them in different places.

T1 sequence (P62136 other isoform, or with tags, fused parts or gaps): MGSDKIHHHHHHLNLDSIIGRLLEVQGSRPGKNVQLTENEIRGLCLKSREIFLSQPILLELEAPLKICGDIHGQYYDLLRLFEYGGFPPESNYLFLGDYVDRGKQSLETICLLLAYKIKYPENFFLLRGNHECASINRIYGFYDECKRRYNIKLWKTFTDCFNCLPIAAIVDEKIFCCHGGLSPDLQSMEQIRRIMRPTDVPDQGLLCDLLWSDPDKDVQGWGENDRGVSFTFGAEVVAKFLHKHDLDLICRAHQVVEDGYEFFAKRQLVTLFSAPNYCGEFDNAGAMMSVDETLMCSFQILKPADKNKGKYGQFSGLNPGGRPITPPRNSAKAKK

B1: R15B^C (human PPP1R15B amino acids 636-698, N-terminal MBP-tag, C-terminal His6-tag) (other)
chain: VKRKKVTFLEEVTEYYISGDEDRKGPWEEFARDGCRFQKRIQETEDAIGYCLTFEHRERMFNRHHHHHH
In experiment [1], B1 returned a dissociation constant Kd of 0.96 µM.

B2: R15B (human PPP1R15B amino acids 340-698, N-terminal MBP-tag, C-terminal His6-tag) (other)
chain: RDNPTQFVPAAGDIPGNTQESTEEKIELLTTEVPLALEEESPSEGCPSSEIPMEKEPGEGRISVVDYSYLEGDLPISARPACSNKLIDYILGGASSDLETSSDPEGEDWDEEAEDDGFDSDSSLSDSDLEQDPEGLHLWNSFCSVDPYNPQNFTATIQTAARIVPEEPSDSEKDLSGKSDLENSSQSGSLPETPEHSSGEEDDWESSADEAESLKLWNSFCNSDDPYNPLNFKAPFQTSGENEKGCRDSKTPSESIVAISECHTLLSCKVQLLGSQESECPDSVQRDVLSGGRHTHVKRKKVTFLEEVTEYYISGDEDRKGPWEEFARDGCRFQKRIQETEDAIGYCLTFEHRERMFNRHHHHHH
B2 came in with a Kd in experiment [2] of 0.9 µM.
